Measurements taken from article PMC4899871, “The T300A Crohn's disease risk polymorphism impairs function of the WD40 domain of ATG16L1” (Nature Communications, 2016).
Ends that are not written are not given here. Tds = not defined here

Key:
Test in all cases: peptide or protein array; Peptides immobilised through the N-terminus (Tds spacer) on glass slides (JPT), nine spots per peptide; recombinant ligand 400 nM to 1 uM in PBS/0.05% Tween-20 with 5% BSA, 2 h at room temperature then overnight at 4 °C; detected with anti-HA plus anti-GST and Cy5-labelled secondary antibodies; background of a FLAG peptide subtracted
Conditions in all cases: both partners purified
[1] = molecular target: T1, GST-HA-ATG16L1-231–607 T300, purified from human cells (human, UniProt Q676U5 231-607)
T1 construct: source: HEK-293T, retrovirally transduced, purified (GSH-agarose)

[2] = molecular target: T2, GST-HA-ATG16L1-320–607 (recombinant WD40 domain fused to GST and the HA tag) (human, UniProt Q676U5 320-607)
T2 construct: source: E. coli BL21 (pGEX), purified (GSH-agarose, eluted with reduced GSH)

[3] = molecular target: T3, GST-HA-ATG16L1-231–607 A300, purified from human cells (human, UniProt Q676U5 231-607, T300A)
T3 construct: source: HEK-293T, retrovirally transduced, purified (GSH-agarose)
T3 sequence (Q676U5 231-607 T300A): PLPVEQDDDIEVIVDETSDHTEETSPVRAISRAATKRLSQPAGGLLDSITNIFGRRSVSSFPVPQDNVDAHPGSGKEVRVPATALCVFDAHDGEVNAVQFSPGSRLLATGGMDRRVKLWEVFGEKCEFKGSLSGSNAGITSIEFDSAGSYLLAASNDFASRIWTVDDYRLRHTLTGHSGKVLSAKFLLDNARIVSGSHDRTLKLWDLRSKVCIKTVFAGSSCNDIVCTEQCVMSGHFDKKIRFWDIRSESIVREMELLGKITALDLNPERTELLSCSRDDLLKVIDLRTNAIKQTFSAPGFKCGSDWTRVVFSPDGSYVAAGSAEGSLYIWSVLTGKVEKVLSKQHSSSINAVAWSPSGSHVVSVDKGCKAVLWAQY

T1 sequence (Q676U5 231-607): as the sequence (Q676U5 231-607 T300A) above, with A70T counted along it
T2 sequence (Q676U5 320-607): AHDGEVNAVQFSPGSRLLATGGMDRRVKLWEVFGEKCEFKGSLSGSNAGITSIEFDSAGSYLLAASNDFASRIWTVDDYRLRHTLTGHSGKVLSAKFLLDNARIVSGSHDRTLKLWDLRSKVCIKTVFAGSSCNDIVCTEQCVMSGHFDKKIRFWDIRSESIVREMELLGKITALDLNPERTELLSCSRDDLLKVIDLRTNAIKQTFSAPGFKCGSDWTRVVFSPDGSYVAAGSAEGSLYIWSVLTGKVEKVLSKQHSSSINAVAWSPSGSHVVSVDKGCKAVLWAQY

B1: TMEM59 263–281 peptide E272A (peptide, UniProt Q9BXS4 263-281, looked up)
peptide: Tds-TAVEQYVPSAKLSIYGDLE
modifications: reading uncertain
notes: TMEM59 residues 263-281 with E272A; source: synthetic peptide on microarray, bought: JPT (Germany)
binding result [1]: binds

B2: TMEM59 263–281 peptide, wild type (19-amino acid peptide that includes the ATG16L1-binding motif) (peptide, UniProt Q9BXS4 263-281, looked up)
peptide: Tds-TAVEQYVPSEKLSIYGDLE
modifications: not fully specified; reading uncertain
notes: TMEM59 residues 263-281 of the intracellular domain; also called WT peptide; native peptide; source: synthetic peptide on microarray, bought: JPT (Germany)
binding result [2]: binds | binding result [1]: binds | binding result [3]: binds
